According to publication PMC10705692:

Columns and labels:
[1] = paired-pulse whole-cell patch clamp, tau recovery; details: glycan lost; control: GluK2 WT
[2] = whole-cell patch clamp, HEK293T, tau desensitization; details: glycan lost
[3] = whole-cell patch clamp, HEK293T, 10 s domoate; details: glycan lost; control: GluK2 WT
[4] = whole-cell patch clamp, 3 ms glutamate, tau deactivation; details: glycan lost

B1: GluK2 KAR: T277A (protein)
parent chain: MKIISPVLSNLVFSRSIKVLLCLLWIGYSQGTTHVLRFGGIFEYVESGPMGAEELAFRFAVNTINRNRTLLPNTTLTYDTQKINLYDSFEASKKACDQLSLGVAAIFGPSHSSSANAVQSICNALGVPHIQTRWKHQVSDNKDSFYVSLYPDFSSLSRAILDLVQFFKWKTVTVVYDDSTGLIRLQELIKAPSRYNLRLKIRQLPADTKDAKPLLKEMKRGKEFHVIFDCSHEMAAGILKQALAMGMMTEYYHYIFTTLDLFALDVEPYRYSGVNMTGFRILNTENTQVSSIIEKWSMERLQAPPKPDSGLLDGFMTTDAALMYDAVHVVSVAVQQFPQMTVSSLQCNRHKPWRFGTRFMSLIKEAHWEGLTGRITFNKTNGLRTDFDLDVISLKEEGLEKIGTWDPASGLNMTESQKGKPANITDSLSNRSLIVTTILEEPYVLFKKSDKPLYGNDRFEGYCIDLLRELSTILGFTYEIRLVEDGKYGAQDDVNGQWNGMVRELIDHKADLAVAPLAITYVREKVIDFSKPFMTLGISILYRKPNGTNPGVFSFLNPLSPDIWMYILLAYLGVSCVLFVIARFSPYEWYNPHPCNPDSDVVENNFTLLNSFWFGVGALMQQGSELMPKALSTRIVGGIWWFFTLIIISSYTANLAAFLTVERMESPIDSADDLAKQTKIEYGAVEDGATMTFFKKSKISTYDKMWAFMSSRRQSVLVKSNEEGIQRVLTSDYAFLMESTTIEFVTQRNCNLTQIGGLIDSKGYGVGTPMGSPYRDKITIAILQLQEEGKLHMMKEKWWRGNGCPEEESKEASALGVQNIGGIFIVLAAGLVLSVFVAVGEFLYKSKKNAQLEKRSFCSAMVEELRMSLKCQRRLKHKPQAPVIVKTEEVINMHTFNDRRLPGKETMA
increases: other: rate of recovery from desensitization [1] | other: desensitization rate ([2]; control: GluK2 WT) | other: desensitization rate [3] | other: deactivation rate ([4]; control: GluK2 WT)

B2: GluK2 KAR: T277A/R775A (protein)
parent chain: MKIISPVLSNLVFSRSIKVLLCLLWIGYSQGTTHVLRFGGIFEYVESGPMGAEELAFRFAVNTINRNRTLLPNTTLTYDTQKINLYDSFEASKKACDQLSLGVAAIFGPSHSSSANAVQSICNALGVPHIQTRWKHQVSDNKDSFYVSLYPDFSSLSRAILDLVQFFKWKTVTVVYDDSTGLIRLQELIKAPSRYNLRLKIRQLPADTKDAKPLLKEMKRGKEFHVIFDCSHEMAAGILKQALAMGMMTEYYHYIFTTLDLFALDVEPYRYSGVNMTGFRILNTENTQVSSIIEKWSMERLQAPPKPDSGLLDGFMTTDAALMYDAVHVVSVAVQQFPQMTVSSLQCNRHKPWRFGTRFMSLIKEAHWEGLTGRITFNKTNGLRTDFDLDVISLKEEGLEKIGTWDPASGLNMTESQKGKPANITDSLSNRSLIVTTILEEPYVLFKKSDKPLYGNDRFEGYCIDLLRELSTILGFTYEIRLVEDGKYGAQDDVNGQWNGMVRELIDHKADLAVAPLAITYVREKVIDFSKPFMTLGISILYRKPNGTNPGVFSFLNPLSPDIWMYILLAYLGVSCVLFVIARFSPYEWYNPHPCNPDSDVVENNFTLLNSFWFGVGALMQQGSELMPKALSTRIVGGIWWFFTLIIISSYTANLAAFLTVERMESPIDSADDLAKQTKIEYGAVEDGATMTFFKKSKISTYDKMWAFMSSRRQSVLVKSNEEGIQRVLTSDYAFLMESTTIEFVTQRNCNLTQIGGLIDSKGYGVGTPMGSPYADKITIAILQLQEEGKLHMMKEKWWRGNGCPEEESKEASALGVQNIGGIFIVLAAGLVLSVFVAVGEFLYKSKKNAQLEKRSFCSAMVEELRMSLKCQRRLKHKPQAPVIVKTEEVINMHTFNDRRLPGKETMA
increases: other: desensitization rate ([2]; control: R775A) | other: deactivation rate ([4]; control: R775A)
